Our source for the interaction score values is article PMC10397247.

Read-outs that look alike come from different tables or passages of the source.

What all share (test): two-hybrid library CCmax;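 further: natural log of median RNA to DNA barcode read ratio; higher means stronger binding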
One test has as its target T1, P2-AA-12HAA-K.
T1 chain: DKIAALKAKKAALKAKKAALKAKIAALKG
As to conditions: mean of both orientations.

A further test concerns the target T2, P2-AA-12HAA-S.
T2 chain: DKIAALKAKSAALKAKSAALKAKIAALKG

In the next test the target is T3, P2-AA-12HAA-R.
T3 chain: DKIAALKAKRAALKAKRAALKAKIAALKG

The next test has as its target T4, P2-AA-12HAA-E.
T4 chain: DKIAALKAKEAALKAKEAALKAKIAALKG

The target in a further test is T5, P2-AA-12HAA-L.
T5 chain: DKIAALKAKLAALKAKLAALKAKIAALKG

For the next test, the target named is T6, P2-AA-12HAA-D.
T6 chain: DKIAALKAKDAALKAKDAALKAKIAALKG
Conditions: mean of both orientations.

The next test concerns the target T7, P2-AA-12HAA-T.
T7 chain: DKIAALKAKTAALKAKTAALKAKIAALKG
Conditions: mean of both orientations.

For a further test, the target named is T8, P2-AA-12HAA-V.
T8 chain: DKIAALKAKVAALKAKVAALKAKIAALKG
As to conditions: mean of both orientations.

Another test addresses T9, P2-AA-12HAA-H.
T9 chain: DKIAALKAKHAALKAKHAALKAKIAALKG
Conditions: mean of both orientations.

The target of the next test is T10, P2-AA.
T10 chain: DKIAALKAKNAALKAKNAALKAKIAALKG
Conditions: mean of both orientations.

Another test addresses T11, P2-AA-12HAA-I.
T11 chain: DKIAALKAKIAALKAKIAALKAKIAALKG
As to conditions: mean of both orientations.

The target of another test is T12, P2-AA-12HAA-Y.
T12 chain: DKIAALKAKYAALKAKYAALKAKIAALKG
Conditions: mean of both orientations.

The target of another test is T13, P6-AA-12HAA-Y.
T13 chain: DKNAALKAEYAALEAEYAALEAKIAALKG
Conditions: mean of both orientations.

For the next test, the target named is T14, P6-AA-12HAA-S.
T14 chain: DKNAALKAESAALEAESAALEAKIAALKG
Conditions: mean of both orientations.

In another test the target is T15, P6-AA-12HAA-D.
T15 chain: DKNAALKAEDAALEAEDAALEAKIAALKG
Conditions: mean of both orientations.

Another test deals with T16, P6-AA-1HAA-R.
T16 chain: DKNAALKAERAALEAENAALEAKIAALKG
As to conditions: mean of both orientations.

For a further test, the target named is T17, P6-AA-1HAA-Y.
T17 chain: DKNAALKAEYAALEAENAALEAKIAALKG
Conditions: mean of both orientations.

The target of another test is T18, P6-AA-12HAA-L.
T18 chain: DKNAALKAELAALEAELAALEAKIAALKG
Conditions: mean of both orientations.

A further test has as its target T19, P6-AA-1HAA-H.
T19 chain: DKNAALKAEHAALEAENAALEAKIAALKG
As to conditions: mean of both orientations.

Another test deals with T20, P6-AA-12HAA-T.
T20 chain: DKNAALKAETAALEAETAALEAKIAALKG
As to conditions: mean of both orientations.

The target of another test is T21, P6-AA-1HAA-D.
T21 chain: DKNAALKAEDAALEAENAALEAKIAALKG
As to conditions: mean of both orientations.

The target of a further test is T22, P6-AA-1HAA-S.
T22 chain: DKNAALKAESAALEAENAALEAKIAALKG
Conditions: mean of both orientations.

In the next test the target is T23, P6-AA-1HAA-K.
T23 chain: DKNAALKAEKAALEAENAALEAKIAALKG
As to conditions: mean of both orientations.

For a further test, the target named is T24, P6-AA-12HAA-H.
T24 chain: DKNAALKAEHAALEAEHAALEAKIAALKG
Conditions: mean of both orientations.

Another test concerns the target T25, P6-AA-1HAA-L.
T25 chain: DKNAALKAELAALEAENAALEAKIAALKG
As to conditions: mean of both orientations.

The target in another test is T26, P6-AA-12HAA-R.
T26 chain: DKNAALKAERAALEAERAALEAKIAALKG
As to conditions: mean of both orientations.

Another test has as its target T27, P6-AA-1HAA-T.
T27 chain: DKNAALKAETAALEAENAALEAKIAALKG
Conditions: mean of both orientations.

The next test concerns the target T28, P6-AA-12HAA-V.
T28 chain: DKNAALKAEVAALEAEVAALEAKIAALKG
Conditions: mean of both orientations.

The target of the next test is T29, P6-AA-1HAA-N.
T29 chain: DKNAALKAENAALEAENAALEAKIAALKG
As to conditions: mean of both orientations.

The target in another test is T30, P6-AA-1HAA-E.
T30 chain: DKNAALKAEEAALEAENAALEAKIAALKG
Conditions: mean of both orientations.

A further test deals with T31, P6-AA-1HAA-V.
T31 chain: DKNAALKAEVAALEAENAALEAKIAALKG
As to conditions: mean of both orientations.

For another test, the target named is T32, P6-AA-12HAA-K.
T32 chain: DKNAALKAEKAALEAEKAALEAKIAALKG
As to conditions: mean of both orientations.

The target of a further test is T33, P6-AA-12HAA-E.
T33 chain: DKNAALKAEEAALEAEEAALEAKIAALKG
As to conditions: mean of both orientations.

As for DEIAALEAETAALEAETAALEAEIAALEG [P1-AA-12HAA-T], the interaction score with P2-AA-12HAA-K was 1.37; in the test with P2-AA-12HAA-S (mean of both orientations), 1.33; in the test with P2-AA-12HAA-R it was 1.79; with P2-AA-12HAA-E (mean of both orientations), 0.124; with P2-AA-12HAA-L (mean of both orientations) it was 1.97; in the test with P2-AA-12HAA-D, -1.06. Moreover, the interaction score in the test with P2-AA-12HAA-T was 1.56; in the test with P2-AA-12HAA-V, 1.98; in the test with P2-AA-12HAA-H, 1.5; in the test with P2-AA, 2.07; with P2-AA-12HAA-I it was 1.84; with P2-AA-12HAA-Y, 1.53.
On to DEIAALEAEYAALEAEYAALEAEIAALEG [P1-AA-12HAA-Y], for which the interaction score with P2-AA-12HAA-K was 1.89; with P2-AA-12HAA-S (mean of both orientations) it was 1.85; with P2-AA-12HAA-R (mean of both orientations), 1.4; in the test with P2-AA-12HAA-E it was 1.74; in the test with P2-AA-12HAA-L (mean of both orientations), 2.1; in the test with P2-AA-12HAA-D, -0.93. The interaction score with P2-AA-12HAA-T stood at 1.76; with P2-AA-12HAA-V, 1.72; with P2-AA-12HAA-H, 1.67; in the test with P2-AA it was 1.97; in the test with P2-AA-12HAA-I, 1.8; with P2-AA-12HAA-Y, 2.02.
With DENAALEAKNAALKAKNAALKAEIAALEG [P5-AA-1HAA-N], the interaction score is 0.697 in the test with P6-AA-12HAA-Y; -0.405 with P6-AA-12HAA-S; -1.55 with P6-AA-12HAA-D; 0.871 with P6-AA-1HAA-R; 1.5 with P6-AA-1HAA-Y; -0.372 with P6-AA-12HAA-L. Further, the interaction score with P6-AA-1HAA-H was 1.2; in the test with P6-AA-12HAA-T it was -0.0689; with P6-AA-1HAA-D, -0.622; in the test with P6-AA-1HAA-S it was 1.15; with P6-AA-1HAA-K, 0.958; with P6-AA-12HAA-H, 0.901. Moreover, the interaction score is 1.05 with P6-AA-1HAA-L; -0.112 in the test with P6-AA-12HAA-R; 1.25 with P6-AA-1HAA-T; -0.62 with P6-AA-12HAA-V; 2.27 with P6-AA-1HAA-N; 0.442 with P6-AA-1HAA-E. Also, the interaction score with P6-AA-1HAA-V was 1.86; in the test with P6-AA-12HAA-K, -0.291; in the test with P6-AA-12HAA-E, -0.844.
For the molecule DEIAALEAELAALEAELAALEAEIAALEG [P1-AA-12HAA-L], the interaction score with P2-AA-12HAA-K came out at 1.6; with P2-AA-12HAA-S, 1.59; in the test with P2-AA-12HAA-R (mean of both orientations) it was 1.7; with P2-AA-12HAA-E (mean of both orientations), 1.74; with P2-AA-12HAA-L (mean of both orientations), 2.35; with P2-AA-12HAA-D it was 1.26. Besides, the interaction score with P2-AA-12HAA-T was 2.1; with P2-AA-12HAA-V, 2.38; with P2-AA-12HAA-H it was 1.84; with P2-AA, 1.49; with P2-AA-12HAA-I, 1.68; with P2-AA-12HAA-Y it was 1.68.
With DEIAALEAEKAALEAEKAALEAEIAALEG [P1-AA-12HAA-K], the interaction score with P2-AA-12HAA-K was -1.33; with P2-AA-12HAA-S (mean of both orientations), -0.0454; in the test with P2-AA-12HAA-R (mean of both orientations), -0.283; with P2-AA-12HAA-E (mean of both orientations), -0.226; in the test with P2-AA-12HAA-L, 1.62; with P2-AA-12HAA-D, -0.759. Also, the interaction score worked out at 0.253 with P2-AA-12HAA-T; 1.38 with P2-AA-12HAA-V; 0.974 with P2-AA-12HAA-H; 1.75 in the test with P2-AA; 1.67 in the test with P2-AA-12HAA-I; 0.916 in the test with P2-AA-12HAA-Y.
Regarding DENAALEAKEAALKAKNAALKAEIAALEG [P5-AA-1HAA-E], the interaction score in the test with P6-AA-1HAA-R was -1.33; in the test with P6-AA-1HAA-Y, -0.801; in the test with P6-AA-1HAA-H, -1.76; in the test with P6-AA-1HAA-D, -1.78; in the test with P6-AA-1HAA-S, -1.13; with P6-AA-1HAA-K, -1.41. Moreover, the interaction score was 0.711 in the test with P6-AA-1HAA-L; -0.112 with P6-AA-1HAA-T; -0.649 with P6-AA-1HAA-N; -1.42 in the test with P6-AA-1HAA-E; 1.57 with P6-AA-1HAA-V.
As for DEIAALEAEEAALEAEEAALEAEIAALEG [P1-AA-12HAA-E], the interaction score with P2-AA-12HAA-K is 1.62; in the test with P2-AA-12HAA-S (mean of both orientations), 0.789; with P2-AA-12HAA-R (mean of both orientations), 1.71; in the test with P2-AA-12HAA-E (mean of both orientations), -0.819; with P2-AA-12HAA-L (mean of both orientations), 1.82; in the test with P2-AA-12HAA-D, -1.42. The interaction score with P2-AA-12HAA-T is 0.375; in the test with P2-AA-12HAA-V it was 1.49; with P2-AA-12HAA-H it was 1.59; with P2-AA it was 1.91; with P2-AA-12HAA-I it was 1.5; with P2-AA-12HAA-Y, -0.0466.
DENAALEAKTAALKAKNAALKAEIAALEG [P5-AA-1HAA-T]: the interaction score was 0.322 in the test with P6-AA-1HAA-R; 1.19 with P6-AA-1HAA-Y; 1.47 with P6-AA-1HAA-H; -0.594 in the test with P6-AA-1HAA-D; 0.78 in the test with P6-AA-1HAA-S; 0.498 in the test with P6-AA-1HAA-K. Moreover, the interaction score with P6-AA-1HAA-L was determined as 1.91; with P6-AA-1HAA-T, 0.456; in the test with P6-AA-1HAA-N it was 0.702; with P6-AA-1HAA-E, 0.317; with P6-AA-1HAA-V, 2.01.
In the case of DEIAALEAEHAALEAEHAALEAEIAALEG [P1-AA-12HAA-H], the interaction score with P2-AA-12HAA-K is 0.96; in the test with P2-AA-12HAA-S (mean of both orientations) it was 1.07; in the test with P2-AA-12HAA-R (mean of both orientations), -0.0784; with P2-AA-12HAA-E (mean of both orientations), 0.0438; with P2-AA-12HAA-L (mean of both orientations) it was 1.83; with P2-AA-12HAA-D, -1.24. Also, the interaction score in the test with P2-AA-12HAA-T was 1.16; in the test with P2-AA-12HAA-V, 1.78; with P2-AA-12HAA-H, -0.35; with P2-AA, 1.85; with P2-AA-12HAA-I, 1.75; with P2-AA-12HAA-Y, -0.416.
With DEIAALEAESAALEAESAALEAEIAALEG [P1-AA-12HAA-S], the interaction score is 0.951 in the test with P2-AA-12HAA-K; 1.26 with P2-AA-12HAA-S (mean of both orientations); 1.11 with P2-AA-12HAA-R (mean of both orientations); -0.4 with P2-AA-12HAA-E; 2.15 in the test with P2-AA-12HAA-L (mean of both orientations); -0.855 with P2-AA-12HAA-D. Further, the interaction score in the test with P2-AA-12HAA-T turned out to be 0.962; in the test with P2-AA-12HAA-V, 1.8; with P2-AA-12HAA-H, 1.58; with P2-AA it was 2.24; with P2-AA-12HAA-I it was 1.69; with P2-AA-12HAA-Y, 0.635.
